From patent US20220228142A1 (VERTEX PHARMACEUTICALS, published 2022)

Target: 53BP1 (p53-binding protein 1) (human, UniProt Q12888 1-1972, limits assumed)
Assay: cell-based or functional assay

Sequence of 53BP1 (p53-binding protein 1) (Q12888 whole entry): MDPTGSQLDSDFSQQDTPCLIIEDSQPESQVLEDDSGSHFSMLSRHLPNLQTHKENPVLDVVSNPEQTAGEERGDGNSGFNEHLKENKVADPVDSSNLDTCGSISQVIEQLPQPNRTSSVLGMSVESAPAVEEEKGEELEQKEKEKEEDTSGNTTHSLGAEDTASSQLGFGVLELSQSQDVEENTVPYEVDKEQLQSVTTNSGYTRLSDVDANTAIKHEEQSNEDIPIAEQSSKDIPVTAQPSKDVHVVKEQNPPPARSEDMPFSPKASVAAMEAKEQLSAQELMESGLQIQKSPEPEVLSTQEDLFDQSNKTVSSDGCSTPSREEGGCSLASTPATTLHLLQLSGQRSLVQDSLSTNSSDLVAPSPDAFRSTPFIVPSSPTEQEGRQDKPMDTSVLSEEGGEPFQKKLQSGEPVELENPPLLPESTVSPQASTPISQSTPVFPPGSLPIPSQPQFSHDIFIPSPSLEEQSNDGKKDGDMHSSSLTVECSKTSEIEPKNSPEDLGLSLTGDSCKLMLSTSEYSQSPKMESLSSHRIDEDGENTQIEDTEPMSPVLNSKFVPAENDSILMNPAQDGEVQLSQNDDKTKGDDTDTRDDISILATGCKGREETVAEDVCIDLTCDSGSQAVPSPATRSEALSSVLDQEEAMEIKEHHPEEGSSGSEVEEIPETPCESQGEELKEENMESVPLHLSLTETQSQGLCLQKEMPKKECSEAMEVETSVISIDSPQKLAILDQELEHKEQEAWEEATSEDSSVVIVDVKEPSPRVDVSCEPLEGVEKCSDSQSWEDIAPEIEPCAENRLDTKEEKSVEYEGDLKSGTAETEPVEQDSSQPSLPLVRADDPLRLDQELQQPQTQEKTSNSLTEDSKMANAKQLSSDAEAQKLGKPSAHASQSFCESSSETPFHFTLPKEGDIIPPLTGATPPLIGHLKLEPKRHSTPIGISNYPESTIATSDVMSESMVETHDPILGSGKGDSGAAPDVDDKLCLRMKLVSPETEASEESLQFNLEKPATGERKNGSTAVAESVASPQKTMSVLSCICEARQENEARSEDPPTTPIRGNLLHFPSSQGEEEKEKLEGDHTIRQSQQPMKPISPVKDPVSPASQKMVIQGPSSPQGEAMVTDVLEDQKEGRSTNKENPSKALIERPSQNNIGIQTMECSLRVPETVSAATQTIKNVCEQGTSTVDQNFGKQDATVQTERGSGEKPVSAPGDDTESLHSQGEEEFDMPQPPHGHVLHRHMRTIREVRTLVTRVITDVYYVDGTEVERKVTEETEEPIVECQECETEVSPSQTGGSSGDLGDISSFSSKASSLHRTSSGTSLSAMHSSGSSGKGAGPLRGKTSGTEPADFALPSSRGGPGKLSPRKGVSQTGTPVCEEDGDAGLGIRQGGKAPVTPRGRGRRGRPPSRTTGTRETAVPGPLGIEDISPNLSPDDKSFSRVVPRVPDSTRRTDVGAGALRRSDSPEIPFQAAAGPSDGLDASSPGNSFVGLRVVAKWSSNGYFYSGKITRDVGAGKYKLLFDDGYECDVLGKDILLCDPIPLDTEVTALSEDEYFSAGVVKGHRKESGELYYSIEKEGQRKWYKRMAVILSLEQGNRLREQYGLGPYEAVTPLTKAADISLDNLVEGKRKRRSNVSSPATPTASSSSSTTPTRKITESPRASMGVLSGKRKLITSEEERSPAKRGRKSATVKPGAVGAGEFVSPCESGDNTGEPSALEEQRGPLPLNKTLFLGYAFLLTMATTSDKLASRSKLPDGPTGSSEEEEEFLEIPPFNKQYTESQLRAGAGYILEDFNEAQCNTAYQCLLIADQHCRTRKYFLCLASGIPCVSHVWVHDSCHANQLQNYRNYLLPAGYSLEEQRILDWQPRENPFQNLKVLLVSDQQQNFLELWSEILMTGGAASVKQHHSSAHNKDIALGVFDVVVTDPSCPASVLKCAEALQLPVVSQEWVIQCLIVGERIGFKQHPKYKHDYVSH

INDELs due to NHEJ repair (+/-1 nt), T107 RNP+AAV.310, NGS: 1.3 fold reduction
B1: i53 polypeptide (polypeptide inhibitor of 53BP1) (designed binder)
chain: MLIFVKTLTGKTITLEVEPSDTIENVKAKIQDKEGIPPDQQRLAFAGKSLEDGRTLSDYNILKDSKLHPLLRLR
